Data on 41 sequences can be found in the nanobody polyreactivity screen of Harvey et al. (2022).

A short description of this series: yeast display, Sf9 membrane polyspecificity reagent, FACS + sequencing; frameworks hold sequencing errors. An outline of the steps: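 In a synthetic yeast display library (Saccharomyces cerevisiae BJ5465), nanobody expression was induced with galactose for 36–48 hours. FACS gates were set low and high (top ~1%) using anti-HA fluorescence for expression and streptavidin fluorescence for binding of the Sf9 membrane reagent. Each polyreactivity label is drawn from the gate of origin.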
For the sequence “QVQLVGSGGGLVQAGGSLRLSCAASGSTFGYYAMGWYRQAPGKERELVAAITKSGGSTFYADSVKGRFTISRDNAKNTVYLQMNSLKPEDTAVYYCAARYKGQYYRQGRHDFWGQGTQVTVSS”, the “polyreactivity (PSR sort gate)” value is “high polyreactivity”.

As to “QVQLVQAGGGLVQAGGILRLSCAASGRIFRLYTMGWYRQAPGKERELVAAINSSGGNTYYADSVKGRFTISRDNAKNNVNLQMNSLKPEDTAVYYCAAGWSYPVRNIYYDWGQGTQVTVSS”, the “polyreactivity (PSR sort gate)” value is recorded as “high polyreactivity”.

Turning to “QVQLVQSAGGLVQAGGSLRLSCAASGSILSINGMGSYRQAPGKERELVATIDGSDGSTFYADSVKGRLTISRDNAKNTVYFQMNSLKPEDTAVYYCAAENLWQTKEYDYWGLGTQVTVSS”, the “polyreactivity (PSR sort gate)” value was “low polyreactivity”.

“QVQLVQSCGCLVQAGGSLRLSCAASGRIFYGNDMGWNRQAPGKERDLVAAISSGTSTNYADSVKGRFTISRDNAMNTVYLQMNSLKPEVTAVYYWAAGSYSRYLYSLYFDFDYWGQGSQVTVSS”: the “polyreactivity (PSR sort gate)” value is “low polyreactivity”.

Turning to “QVQLVQSGAGLVQARGSLRLSCAASGSTFRRNVMGWYRQAPGTERELVAAISWSGTSTNYADSVKWRFTISRDNAKNTVYLQMNSLKPEDTAVYYCATQSLYYRWGLDYWGQGTQVTVSS”, the “polyreactivity (PSR sort gate)” value was “high polyreactivity”.

As for “QVQLVQSGGGLVHAGGSLRLSCAASGGTFQRYVMGWYRQAPGKERELVAAISRSGSTYADSVKGRFTISRDNAKNTVYLEMNSLKPEDTAVYYCNTVYPGRDYCKFGYWGQGTQVTVSS”, the “polyreactivity (PSR sort gate)” value is reported as “high polyreactivity”.

As for “QVQLVQSGGGLVQAGASLRLSCAASGSTFWKYAMGWYRQAPGQERELVASIRSGGSTYYADSVKGRFTISRDNAKNTVYLQMNSLIPEDTAVYYCAAVTHGRYDWVQGTQVTVSS”, the “polyreactivity (PSR sort gate)” value is recorded as “high polyreactivity”.

With “QVQLVQSGGGLVQAGGILRLSCAASGRTFSTNAMGRYIQAPGKERQLVAAITYGSSSTYYADSVKGRFTISRDNAKNTVYFKMNCLKPEDTAVYDCAAGGFFTHRRTYGYWGQGTQVTVSS”, the “polyreactivity (PSR sort gate)” value is on record as “high polyreactivity”.

Turning to “QVQLVQSGGGLVQAGGSLRLSCAASGFIFDTYTMGWYRQAPGKERQLVAAISRSGASTYYADSVKGRFTISRDNAKNTVYLQMNSLKPEDTAVYYCATVYYPSYRGGYDYWGQGTQVTVSS”, the “polyreactivity (PSR sort gate)” value is reported as “high polyreactivity”.

As for “QVQLVQSGGGLVQAGGSLRLSCAASGITFEYNTMGWYRQAPGKERELVAAITQGGGTTNYADSVKGRFTISRDNAKNTVYLQMNSLKPEDTAVYYCAAFVGYLLLYYPTYYYWGQGTEVTVSS”, the “polyreactivity (PSR sort gate)” value is recorded as “low polyreactivity”.

In the case of “QVQLVQSGGGLVQAGGSLRLSCAASGLIFRYYTMGWYRQAPGKERELVAAISSGGSTRYADSVKGRFTISRDNAKNTVYLQMNSLKPEDTAVYYCAAKLYYYVQGRYNYWGQGTQVTVSS”, the “polyreactivity (PSR sort gate)” value was “high polyreactivity”.

For the sequence “QVQLVQSGGGLVQAGGSLRLSCAASGLIFTTNPMGWYRQAPGKERQFVAAISPSGGSTYYADSVKGRFTISRDNAKNTVYLQMNCLKPEDTAVYSCGARYSPVWHKYYYWGQGTQVTVSS”, the “polyreactivity (PSR sort gate)” value is recorded as “high polyreactivity”.

For the sequence “QVQLVQSGGGLVQAGGSLRLSCAASGRIFGLNTMGWYRQAPGKERELVAAITSSAGSTYYADSVKGRFPISRDNAKNTVSLQMNSLKPEDTAVYYCAARVSYLGSFTSQRYYYWGQGTQVTVSS”, the “polyreactivity (PSR sort gate)” value is “high polyreactivity”.

Consider “QVQLVQSGGGLVQAGGSLRLSCAASGRTFYYYPMGWYRPAPGKERELVAAIRWRGGRTYADSVKGRFTISRDNAKNTVYLQMNSLKPEDTAVYYCAVESFYRHASLYDYWGQGTQVTVSS”, for which the “polyreactivity (PSR sort gate)” value is listed as “high polyreactivity”.

With “QVQLVQSGGGLVQAGGSLRLSCAASGSIFGYYAKGWNRQAPGKERQLVAAIDSRGGSTYYADSVKGRFTISRDNEKNTVYLQMNSLKTEDTAVYYCAARLRYPRRGQGDNYRGQGTQVTVSS”, the “polyreactivity (PSR sort gate)” value is on record as “low polyreactivity”.

In the case of “QVQLVQSGGGLVQAGGSLRLSCAASGSTFLSKAMGWYRQAPWKERQLVAAITTSGTSTFYADSVKGRFTISRDNAKNTVYLQMNSLKPADTAVYCAKDYLPYLHFVAPSTGDYDYWGQGTQVTVSS”, the “polyreactivity (PSR sort gate)” value was “low polyreactivity”.

As for “QVQLVQSGGGLVQAGGSLRLSCAASGSTFRIYAMGWYRQAPGKEREFVAAISDRGGRTYYADSVKGRFTISRDNAKNTVYLQMNSLKPEDTAVYYCAAVKLLSSAPGDDCQMNYWGQGTQVTVSS”, the “polyreactivity (PSR sort gate)” value is reported as “low polyreactivity”.

Turning to “QVQLVQSGGGLVQAGGSLRLSCAASGSTFYQYAMGWYRQSPGKERELVAAISRSGSTNYADSVKGRFTHSRDNAQNTVYLQMNSMKPEDSAVYYCAARLGTRQYKMDYWGQGTQVTVSS”, the “polyreactivity (PSR sort gate)” value was “high polyreactivity”.

For “QVQLVQSGGGLVQAGGSLRLSCAASGTTFRIYAMGWYRQAPGKEREFVAAISDRGGRTYYADSVKGRFTISRDNAKNTVYLQMNSLKPEDTAVYYCAAVKLLSSAPGDDGKMNYWGQGTQVTVSS”, the “polyreactivity (PSR sort gate)” value was “low polyreactivity”.

In the case of “QVQLVQSGGGLVQAGGSLRLSYAASGRIFSPNAMGWYRQAPGKERELVAAISYRGANTYYADSVKGRFTISRDNAKNTVDLQMHSLKPEDTAVYYCATRSTHYWGQGTQVTVSS”, the “polyreactivity (PSR sort gate)” value is “high polyreactivity”.

Consider “QVQLVQSGGGLVQAGGSLRVSSAASGNIFAYYAKGWYSQAPGKERELVAAITDSGGNTFYADSVKGRFTISRDQAKNTVYLQMNSLKPEDTAVYYCAADTFYSYYDMDYWGQGTQVTVSS”, for which the “polyreactivity (PSR sort gate)” value is “low polyreactivity”.

In the case of “QVQLVQSGGGLVQAGVSLRLSCAASGLIIGVYAMGWYRQAPGKERELVAAITDGGSTYYADSVKGRFTISRDNAKNTVYLQMHSLKPEDTAVYYCNAEFRSSDYDYWGQGTQVTVSS”, the “polyreactivity (PSR sort gate)” value is “low polyreactivity”.

On to “QVQLVQSRRGLVQAGCSLRLSCAASGRTFVIYAMGWYRQAPGKERELVAAISKGGGSTYYADSVKGRFTISRDNAKNTVYLQMNSLKPEDTAVYYCAVEASRAGAWYEYWGQGTQVTVSS”, for which the “polyreactivity (PSR sort gate)” value is listed as “high polyreactivity”.

Consider “QVQLVQSVGGLVQAGGSLRLSCAASGSIFIWNAMGWYRQAPGKVRELVAAISFTGTSTYYADSVTGRFTISRDNAKNTVYLEMNSLKPEDNAVYYCNNDYRGSQYDYWGQGTQVTVSS”, for which the “polyreactivity (PSR sort gate)” value was “low polyreactivity”.

As to “QVQLVQTGGGVVQAGGSLRLSCAASGRIFNSYPMGWYRQAPGKERELVASINRYGGSTYYADSVKGRFTISRDNAKNTVYLQMYSLNPEDTSVYYCAARGYTSFNTGYGYWGQGTQVSVSS”, the “polyreactivity (PSR sort gate)” value is on record as “high polyreactivity”.

“QVQLVSSGGGLVLAGGSLRLSCAASGRTIQDNAMGWYTQAPGKERELVAAISWRGGSTNYADSVKGRFTISRDNAKNTVYLQMNSLKPEDTAVYYCNRDPRKYGKLDYWGQGTQVTVSS”: the “polyreactivity (PSR sort gate)” value is given as “low polyreactivity”.

Turning to “QVQLVVSGGGLVQAGGSLRLSCAASGFTFSSNAMGWYRQAPGKECELVAAISTSGASTYYADSVKGRFTISRDNAKNTVYLQMNSLKPADSAVYYCNVPQWHRWYGYPGEDYDYWGQGTQVTVSS”, the “polyreactivity (PSR sort gate)” value is given as “high polyreactivity”.

Regarding “QVQLVVSGGGLVQAGGSLRLSCAASGIIFSPYALGWYIQAPGKERELVAAISYSGGSTYYADSVKGRFTISRDNAKNTVYLQMNSLKPEDTAVYYCAVVYSYYLAVMGYWDYDYWGQGTQVTVSS”, the “polyreactivity (PSR sort gate)” value is on record as “low polyreactivity”.

With “QVQLVVSGGGLVQAGGSLRLSCAASGITFGRNTMGWYRQAPGKERELVAAIDSGGNTYADSVKGRFTISRDNAKNTVYLQMNSLKPEDTAVYYCAVDGGEFSSYGYWGQGTQVTVSS”, the “polyreactivity (PSR sort gate)” value is on record as “low polyreactivity”.

For “QVQLVVSGGGLVQAGGSLRLSCAASGRIFWFNAMGWYRQAPGKEREFVATITYRGGSTYYADSVKGRFTISRDNAKNTVYLQMNSLLPEDTAVYYCAASVSYRRYHRFGYWGQGTQVTVSS”, the “polyreactivity (PSR sort gate)” value is recorded as “high polyreactivity”.

Consider “QVQLVVSGGGLVQAGGSLRLSCAASGRIFYTYAMGWYIQAPGKERELVATITDGGSTYYADSVKVRFTISRDNAMNNVYLQMNILKPEDTAVYYCAADAYQWYDWGQGTHVTVSS”, for which the “polyreactivity (PSR sort gate)” value is “low polyreactivity”.

On to “QVQLVVSGGGLVQAGGSLRLSCAASGSIFRFYTMGWYRQAPGKERELVAAISASGGNTYYADSVKGRFTISRDNAKNTVYLQMNSLKPEDTAVYYCARVKFTKYDYWGQGTQVTVSS”, for which the “polyreactivity (PSR sort gate)” value is recorded as “high polyreactivity”.

Consider “QVQLVVSGGGLVQAGGSLRLSCAASGSIFTRYAMGWYRQAPGKERELVAAISSGGSTYYADSVKGRFTISRDNAKNTVYLQMNSLKPEDTAVYYCAKDSGSYRVGIYEPFPYGYWGQGTQVTVSS”, for which the “polyreactivity (PSR sort gate)” value is on record as “low polyreactivity”.

With “QVQLVYSGGGLVKAGGTLRLSCAASGSTFTPNAMGWYRQAPGKERELVAAINWSDSSTYYADSVKGRFTISRDNAKNTVYLQMNSLIPEDTAVYYCAAAAQYGQLQVPVYYWGEGTQVTVSS”, the “polyreactivity (PSR sort gate)” value is “low polyreactivity”.

Regarding “QVQLVYSGGGLVQAGGSLRLSCAASGRTSWIKAMGWYRTAPGKERQLVAAIRYSGRTYYADSVKGRFTISRDNAKNTVYLQMNSLKPEDYGVYYCAAVVGGYETGRYYYWGQGTQVTVSS”, the “polyreactivity (PSR sort gate)” value is “high polyreactivity”.

As for “QVQMQESSGGLVHAGGSLRKSCAASGTIYHFHIMGWYRQAPGKEREFVAAIRYGTSTYYADSVKGLFTISRDNEKNTVYVKMNSQKPEDTAVYYCAVYDYLEVYCWYWGQGTQVTVSS”, the “polyreactivity (PSR sort gate)” value is “low polyreactivity”.

In the case of “QVQNVDSGGVLVQAGGSLRLSCEASGRIRYYAMGWYRQAPGKERELVAAISSRGGSTYYADSVKGRFTISRDNAKNTVYLLLNSLKPEDTAVYYCAKGGYWGHGTQVTVSS”, the “polyreactivity (PSR sort gate)” value was “high polyreactivity”.

“QVQPVESGGGLVQAGGSLRLSCAASGSTLGHNAMGWYRQAPGKERELVAAITSSGGRTYYADSVKGRFTISRDNAKNTVYLQMNSLKPEDTAVYYCAADDTDYPEYDYWGQGTQVTVSS”: the “polyreactivity (PSR sort gate)” value is recorded as “high polyreactivity”.

Consider “QVQPVESVGGLVQAGGSLRLSGAASGSIFAVYAMRWYRQPPGNERELVARITRGGGSTYYADSVKGRVTISRDNAKNTVYLQMNSLKPEDTAVYYCAAARRSQYRTWMNYWGQGTQVTVSS”, for which the “polyreactivity (PSR sort gate)” value was “high polyreactivity”.

Consider “QVQQPESGGGLVQAGGSLRLSCAASGTIFQLTVMGRSRQAPGKERELVASIDYGGNPNYADSVKGRFTISRDNAKNTVYLQMNCLKPEDTAVYYCAASSDSWTTHPYWGQGTQVTVSS”, for which the “polyreactivity (PSR sort gate)” value was “low polyreactivity”.

Regarding “QVQQQESGGGLVKAGGSLRLSCAASGNNSPRDAMGWYRQAPGEERDLVASNAYSAITYYADGVKGRYTISRDNAKNTVYLQMNSLKPEDTEVYYCAVYQFTYPVFPAYWGQGTQVTVSS”, the “polyreactivity (PSR sort gate)” value is given as “low polyreactivity”.
